For test [1], the target named is T1, BpiB09 (uncultured bacterium Bio5, UniProt B2BKB1).
T1 construct: about 720 bp gene; His-tag purified from E. coli BL21 DE3 (pET-19b; also cloned in pET-21a); homotetramer
In words: HPLC-MS of reduction to 3-hydroxy-C12-HSL. Type of test: biochemical. The note with it: 1 mM NADPH, 100 mM potassium phosphate pH 7.0, 20% DMSO, 30 C, 16 h; 4 mM substrate (5 mM in Results).

Test [2] deals with T1, BpiB09. In words: X-ray crystal structure, […] A. The class given is binding. The following applies: 1 mM NADP+ added before crystallisation; 0.1 M citric acid pH 4.5, 1.5 M LiSO4; 292 K; nucleotide site; modelled as partial NADP+, nicotinamide half poorly defined.
In test [3] the target is BpiB09 (soil metagenome (not yet cultivated microbe)). In words: crystal structure; BpiB09 with NADP+; crystals from 0.1 M citric acid pH 4.5 and 1.5 M LiSO4 at 292 K; space group I422, four copies per asymmetric unit, tetramer completed by a crystallographic dyad; 2.4 Å.
Test [4] shares this target. In words: AUC; analytical ultracentrifugation of recombinant BpiB09 and its mutants; conditions not given.
Test [5] shares this target. In words: SEC; gel permeation chromatography during purification (data not shown). (In gel filtration, larger molecules generally elute earlier.)

A word on the stoichiometry N: it is a count of units in the complex or per binding partner.

T1 sequence (B2BKB1 entry or part of it): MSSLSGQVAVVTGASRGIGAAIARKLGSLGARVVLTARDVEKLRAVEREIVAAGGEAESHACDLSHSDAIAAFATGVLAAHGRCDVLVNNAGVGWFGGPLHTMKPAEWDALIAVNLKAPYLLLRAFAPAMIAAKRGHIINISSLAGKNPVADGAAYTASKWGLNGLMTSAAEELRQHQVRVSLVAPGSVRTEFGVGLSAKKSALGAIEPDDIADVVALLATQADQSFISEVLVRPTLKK

For `CCCCCCCCCC(=O)CC(=O)N[C@H]1CCOC1=O` [3-oxo-C12-HSL, N-(3-oxo-dodecanoyl)-L-homoserine lactone], at BpiB09 [1], the “HPLC-MS of reduction to 3-hydroxy-C12-HSL” value was “analyses of purified enzyme resulted in a turnover of 3-oxo-C12-HSL to 3-hydroxy-C12-HSL”.
Turning to `NC(=O)c1ccc[n+]([C@@H]2O[C@H](COP(=O)(O)OP(=O)(O)OC[C@H]3O[C@@H](n4cnc5c(N)ncnc54)[C@H](OP(=O)(O)O)[C@@H]3O)[C@@H](O)[C@H]2O)c1` [NADP+], the “X-ray crystal structure, 2.4 A” value on BpiB09 [2] is reported as “adding NADP+ prior to crystallization resulted in a higher occupancy of the bound NADP+”.
On to BpiB09 (enzyme), for which the stoichiometry N in test [3], in test [4] and in test [5] was 4 throughout.

The values above are taken from publication PMC3202535, “A Novel Metagenomic Short-Chain Dehydrogenase/Reductase Attenuates Pseudomonas aeruginosa Biofilm Formation and Virulence on Caenorhabditis elegans” (PLoS ONE, 2011).
